T1: human CD19 (human, UniProt P15391 20-556)
T1 construct: also called B-cell surface antigen B4; B-cell antigen CD19
T1 sequence: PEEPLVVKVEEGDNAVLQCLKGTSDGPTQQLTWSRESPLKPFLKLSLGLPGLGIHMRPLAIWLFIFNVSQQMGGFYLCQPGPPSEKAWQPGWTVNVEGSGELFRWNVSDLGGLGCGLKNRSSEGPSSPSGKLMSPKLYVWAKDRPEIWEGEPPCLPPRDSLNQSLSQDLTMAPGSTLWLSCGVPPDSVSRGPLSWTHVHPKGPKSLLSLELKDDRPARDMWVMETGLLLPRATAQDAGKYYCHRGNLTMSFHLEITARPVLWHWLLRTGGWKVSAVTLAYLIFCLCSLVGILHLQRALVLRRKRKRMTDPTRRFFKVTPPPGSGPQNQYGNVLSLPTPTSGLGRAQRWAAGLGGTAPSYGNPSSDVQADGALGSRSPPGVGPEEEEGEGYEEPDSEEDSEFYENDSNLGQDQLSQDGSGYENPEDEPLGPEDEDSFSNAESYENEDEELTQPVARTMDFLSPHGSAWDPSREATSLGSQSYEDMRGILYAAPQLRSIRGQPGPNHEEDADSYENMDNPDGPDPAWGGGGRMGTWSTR


target: T1, human CD19; experiment: DELFIA competition on Raji cells: unlabeled antibody competes with Eu-labeled anti-CD19 for surface CD19 [upper panel]

binding result	Binder
binds	H2L1 (antibody, V domains shown, also called 4G7 H2L1) VH: QVQLQESGSGLVKPGGSLRLSCAASGYTFTSYVMHWVRQAPGKGLEWMGYINPYNDGTKYNESLKSRVTISSDKSISTAYMELSSLRAEDTAVYYCARGTYYYGSRVFDYWGQGTLVTVSS VL: DIVMTQSPATLSLSPGERATLSCRSSKSLLNSNGNTYLYWFQQKPGQSPQLLIYRMSNLASGVPDRFSGSGSGTEFTLTISSLEPEDFAVYYCMQHLEYPFTFGAGTKLEIK
binds	H1L2 (antibody, V domains shown, also called 4G7 H1L2) VH: EVQLVESGGGLVKPGGSLKLSCAASGYTFTSYVMHWVRQAPGKGLEWIGYINPYNDGTKYNEKFQGRVTISSDKSISTAYMELSSLRSEDTAMYYCARGTYYYGSRVFDYWGQGTLVTVSS VL: DIVMTQSPSSLSASVGDRVTISCRSSKSLLNSNGNTYLYWFQQKPGQSPQLLIYRMSNLASGVPDRFSGSGSGTEFTLTISSLQPEDVAVYYCMQHLEYPFTFGAGTKLEIK

target: T1, human CD19; experiment: binding affinity relative to the parent H1L1 mAb (Example 5); assay and format not named on the sheet

Fold change binding	Binder
5.58 fold	H1.203 / L1.164 (antibody, V domains shown, vs H1L1 (Kabat): VH D55S/K58E/S100cT; VL L27cQ/S27eA/A55N/F96I; also called 4G7 H1.203_L1.164) VH: EVQLVESGGGLVKPGGSLKLSCAASGYTFTSYVMHWVRQAPGKGLEWIGYINPYNSGTEYNEKFQGRVTISSDKSISTAYMELSSLRSEDTAMYYCARGTYYYGTRVFDYWGQGTLVTVSS VL: DIVMTQSPATLSLSPGERATLSCRSSKSLQNANGNTYLYWFQQKPGQSPQLLIYRMSNLNSGVPDRFSGSGSGTEFTLTISSLEPEDFAVYYCMQHLEYPITFGAGTKLEIK
3.57 fold	H1.202 / L1.163 (antibody, V domains shown, vs H1L1 (Kabat): VH D55E/S100cT; VL L27cQ/S27eA/G29S/A55N/F96I; also called 4G7 H1.202_L1.163) VH: EVQLVESGGGLVKPGGSLKLSCAASGYTFTSYVMHWVRQAPGKGLEWIGYINPYNEGTKYNEKFQGRVTISSDKSISTAYMELSSLRSEDTAMYYCARGTYYYGTRVFDYWGQGTLVTVSS VL: DIVMTQSPATLSLSPGERATLSCRSSKSLQNANSNTYLYWFQQKPGQSPQLLIYRMSNLNSGVPDRFSGSGSGTEFTLTISSLEPEDFAVYYCMQHLEYPITFGAGTKLEIK
3.2 fold	H1.203 / L1.163 (antibody, V domains shown, vs H1L1 (Kabat): VH D55S/K58E/S100cT; VL L27cQ/S27eA/G29S/A55N/F96I; also called 4G7 H1.203_L1.163) VH: EVQLVESGGGLVKPGGSLKLSCAASGYTFTSYVMHWVRQAPGKGLEWIGYINPYNSGTEYNEKFQGRVTISSDKSISTAYMELSSLRSEDTAMYYCARGTYYYGTRVFDYWGQGTLVTVSS VL: DIVMTQSPATLSLSPGERATLSCRSSKSLQNANSNTYLYWFQQKPGQSPQLLIYRMSNLNSGVPDRFSGSGSGTEFTLTISSLEPEDFAVYYCMQHLEYPITFGAGTKLEIK
4.32 fold	H1.202 / L1.162 (antibody, V domains shown, vs H1L1 (Kabat): VH D55E/S100cT; VL L27cQ/S27eA/G29A/A55N/F96I; also called 4G7 H1.202_L1.162) VH: EVQLVESGGGLVKPGGSLKLSCAASGYTFTSYVMHWVRQAPGKGLEWIGYINPYNEGTKYNEKFQGRVTISSDKSISTAYMELSSLRSEDTAMYYCARGTYYYGTRVFDYWGQGTLVTVSS VL: DIVMTQSPATLSLSPGERATLSCRSSKSLQNANANTYLYWFQQKPGQSPQLLIYRMSNLNSGVPDRFSGSGSGTEFTLTISSLEPEDFAVYYCMQHLEYPITFGAGTKLEIK
3.25 fold	H1.203 / L1.162 (antibody, V domains shown, vs H1L1 (Kabat): VH D55S/K58E/S100cT; VL L27cQ/S27eA/G29A/A55N/F96I; also called 4G7 H1.203_L1.162) VH: EVQLVESGGGLVKPGGSLKLSCAASGYTFTSYVMHWVRQAPGKGLEWIGYINPYNSGTEYNEKFQGRVTISSDKSISTAYMELSSLRSEDTAMYYCARGTYYYGTRVFDYWGQGTLVTVSS VL: DIVMTQSPATLSLSPGERATLSCRSSKSLQNANANTYLYWFQQKPGQSPQLLIYRMSNLNSGVPDRFSGSGSGTEFTLTISSLEPEDFAVYYCMQHLEYPITFGAGTKLEIK
3.27 fold	H1.204 / L1.161 (antibody, V domains shown, vs H1L1 (Kabat): VH D55E/K58E/S100cT; VL L27cQ/S27eV/G29S/A55N/F96I; also called 4G7 H1.204_L1.161) VH: EVQLVESGGGLVKPGGSLKLSCAASGYTFTSYVMHWVRQAPGKGLEWIGYINPYNEGTEYNEKFQGRVTISSDKSISTAYMELSSLRSEDTAMYYCARGTYYYGTRVFDYWGQGTLVTVSS VL: DIVMTQSPATLSLSPGERATLSCRSSKSLQNVNSNTYLYWFQQKPGQSPQLLIYRMSNLNSGVPDRFSGSGSGTEFTLTISSLEPEDFAVYYCMQHLEYPITFGAGTKLEIK
4.73 fold	H1.204 / L1.163 (antibody, V domains shown, vs H1L1 (Kabat): VH D55E/K58E/S100cT; VL L27cQ/S27eA/G29S/A55N/F96I; also called 4G7 H1.204_L1.163) VH: EVQLVESGGGLVKPGGSLKLSCAASGYTFTSYVMHWVRQAPGKGLEWIGYINPYNEGTEYNEKFQGRVTISSDKSISTAYMELSSLRSEDTAMYYCARGTYYYGTRVFDYWGQGTLVTVSS VL: DIVMTQSPATLSLSPGERATLSCRSSKSLQNANSNTYLYWFQQKPGQSPQLLIYRMSNLNSGVPDRFSGSGSGTEFTLTISSLEPEDFAVYYCMQHLEYPITFGAGTKLEIK
4.07 fold	H1.204 / L1.162 (antibody, V domains shown, vs H1L1 (Kabat): VH D55E/K58E/S100cT; VL L27cQ/S27eA/G29A/A55N/F96I; also called 4G7 H1.204_L1.162) VH: EVQLVESGGGLVKPGGSLKLSCAASGYTFTSYVMHWVRQAPGKGLEWIGYINPYNEGTEYNEKFQGRVTISSDKSISTAYMELSSLRSEDTAMYYCARGTYYYGTRVFDYWGQGTLVTVSS VL: DIVMTQSPATLSLSPGERATLSCRSSKSLQNANANTYLYWFQQKPGQSPQLLIYRMSNLNSGVPDRFSGSGSGTEFTLTISSLEPEDFAVYYCMQHLEYPITFGAGTKLEIK

More lines, now with the values behind:

Binder	Fold change binding
H1 / L1.96 (antibody, V domains shown, vs H1L1 (Kabat): VL A55N; also called 4G7 H1_L1.96) VH: EVQLVESGGGLVKPGGSLKLSCAASGYTFTSYVMHWVRQAPGKGLEWIGYINPYNDGTKYNEKFQGRVTISSDKSISTAYMELSSLRSEDTAMYYCARGTYYYGSRVFDYWGQGTLVTVSS VL: DIVMTQSPATLSLSPGERATLSCRSSKSLLNSNGNTYLYWFQQKPGQSPQLLIYRMSNLNSGVPDRFSGSGSGTEFTLTISSLEPEDFAVYYCMQHLEYPFTFGAGTKLEIK	1.58 fold
H1.191 / L1.162 (antibody, V domains shown, vs H1L1 (Kabat): VH K58E/S100cT; VL L27cQ/S27eA/G29A/A55N/F96I; also called 4G7 H1.191_L1.162) VH: EVQLVESGGGLVKPGGSLKLSCAASGYTFTSYVMHWVRQAPGKGLEWIGYINPYNDGTEYNEKFQGRVTISSDKSISTAYMELSSLRSEDTAMYYCARGTYYYGTRVFDYWGQGTLVTVSS VL: DIVMTQSPATLSLSPGERATLSCRSSKSLQNANANTYLYWFQQKPGQSPQLLIYRMSNLNSGVPDRFSGSGSGTEFTLTISSLEPEDFAVYYCMQHLEYPITFGAGTKLEIK	3.35 fold
H1.201 / L1.162 (antibody, V domains shown, vs H1L1 (Kabat): VH D55S/S100cT; VL L27cQ/S27eA/G29A/A55N/F96I; also called 4G7 H1.201_L1.162) VH: EVQLVESGGGLVKPGGSLKLSCAASGYTFTSYVMHWVRQAPGKGLEWIGYINPYNSGTKYNEKFQGRVTISSDKSISTAYMELSSLRSEDTAMYYCARGTYYYGTRVFDYWGQGTLVTVSS VL: DIVMTQSPATLSLSPGERATLSCRSSKSLQNANANTYLYWFQQKPGQSPQLLIYRMSNLNSGVPDRFSGSGSGTEFTLTISSLEPEDFAVYYCMQHLEYPITFGAGTKLEIK	3.97 fold
H1.52 / L1.162 (antibody, V domains shown, vs H1L1 (Kabat): VH S100cT; VL L27cQ/S27eA/G29A/A55N/F96I; also called 4G7 H1.52_L1.162) VH: EVQLVESGGGLVKPGGSLKLSCAASGYTFTSYVMHWVRQAPGKGLEWIGYINPYNDGTKYNEKFQGRVTISSDKSISTAYMELSSLRSEDTAMYYCARGTYYYGTRVFDYWGQGTLVTVSS VL: DIVMTQSPATLSLSPGERATLSCRSSKSLQNANANTYLYWFQQKPGQSPQLLIYRMSNLNSGVPDRFSGSGSGTEFTLTISSLEPEDFAVYYCMQHLEYPITFGAGTKLEIK	5.57 fold
H1.191 / L1.163 (antibody, V domains shown, vs H1L1 (Kabat): VH K58E/S100cT; VL L27cQ/S27eA/G29S/A55N/F96I; also called 4G7 H1.191_L1.163) VH: EVQLVESGGGLVKPGGSLKLSCAASGYTFTSYVMHWVRQAPGKGLEWIGYINPYNDGTEYNEKFQGRVTISSDKSISTAYMELSSLRSEDTAMYYCARGTYYYGTRVFDYWGQGTLVTVSS VL: DIVMTQSPATLSLSPGERATLSCRSSKSLQNANSNTYLYWFQQKPGQSPQLLIYRMSNLNSGVPDRFSGSGSGTEFTLTISSLEPEDFAVYYCMQHLEYPITFGAGTKLEIK	5.32 fold
H1.201 / L1.163 (antibody, V domains shown, vs H1L1 (Kabat): VH D55S/S100cT; VL L27cQ/S27eA/G29S/A55N/F96I; also called 4G7 H1.201_L1.163) VH: EVQLVESGGGLVKPGGSLKLSCAASGYTFTSYVMHWVRQAPGKGLEWIGYINPYNSGTKYNEKFQGRVTISSDKSISTAYMELSSLRSEDTAMYYCARGTYYYGTRVFDYWGQGTLVTVSS VL: DIVMTQSPATLSLSPGERATLSCRSSKSLQNANSNTYLYWFQQKPGQSPQLLIYRMSNLNSGVPDRFSGSGSGTEFTLTISSLEPEDFAVYYCMQHLEYPITFGAGTKLEIK	3.87 fold
H1.52 / L1.163 (antibody, V domains shown, vs H1L1 (Kabat): VH S100cT; VL L27cQ/S27eA/G29S/A55N/F96I; also called 4G7 H1.52_L1.163) VH: EVQLVESGGGLVKPGGSLKLSCAASGYTFTSYVMHWVRQAPGKGLEWIGYINPYNDGTKYNEKFQGRVTISSDKSISTAYMELSSLRSEDTAMYYCARGTYYYGTRVFDYWGQGTLVTVSS VL: DIVMTQSPATLSLSPGERATLSCRSSKSLQNANSNTYLYWFQQKPGQSPQLLIYRMSNLNSGVPDRFSGSGSGTEFTLTISSLEPEDFAVYYCMQHLEYPITFGAGTKLEIK	3.74 fold
H1.201 / L1.164 (antibody, V domains shown, vs H1L1 (Kabat): VH D55S/S100cT; VL L27cQ/S27eA/A55N/F96I; also called 4G7 H1.201_L1.164) VH: EVQLVESGGGLVKPGGSLKLSCAASGYTFTSYVMHWVRQAPGKGLEWIGYINPYNSGTKYNEKFQGRVTISSDKSISTAYMELSSLRSEDTAMYYCARGTYYYGTRVFDYWGQGTLVTVSS VL: DIVMTQSPATLSLSPGERATLSCRSSKSLQNANGNTYLYWFQQKPGQSPQLLIYRMSNLNSGVPDRFSGSGSGTEFTLTISSLEPEDFAVYYCMQHLEYPITFGAGTKLEIK	4.41 fold
H1.52 / L1.161 (antibody, V domains shown, vs H1L1 (Kabat): VH S100cT; VL L27cQ/S27eV/G29S/A55N/F96I; also called 4G7 H1.52_L1.161) VH: EVQLVESGGGLVKPGGSLKLSCAASGYTFTSYVMHWVRQAPGKGLEWIGYINPYNDGTKYNEKFQGRVTISSDKSISTAYMELSSLRSEDTAMYYCARGTYYYGTRVFDYWGQGTLVTVSS VL: DIVMTQSPATLSLSPGERATLSCRSSKSLQNVNSNTYLYWFQQKPGQSPQLLIYRMSNLNSGVPDRFSGSGSGTEFTLTISSLEPEDFAVYYCMQHLEYPITFGAGTKLEIK	3.18 fold

Source: patent publication US20100272723A1 (Xencor, published 2010)
